According to patent US20220228157A1, “GENE EDITING IN DIVERSE BACTERIA” (priority 2019, published 2022):

Tests used:
E. coli = experiment: Fifteen cycles of MAGE with pool of 15 oligos, editing efficiency by NGS; format: cell-based, Escherichia coli; details: 15 separate mutations, one week
Experimental: E. coli populations expressing either an efficient SSAP (SEQ ID NO: 157), an efficient SSAP/SSB pair (SEQ ID NO: 157/SEQ ID NO: 384), or the widely-used Redβ were taken through fifteen cycles of MAGE and transformed each cycle with a 10 μM pool comprising 15 unique oligos. Editing efficiency at each targeted locus was measured by NGS and averaged (FIG. 3).

[1] = system: 90 bp oligos pre-coated with SSB; experiment: Oligonucleotide annealing and quenching in vitro; format: biochemical
Source text: It was first whether two 90 bp oligos could anneal if they were pre-coated with SSB. SSBs was purified from E. coli (gram-negative), where most recombineering work has been performed, and L. lactis (gram-positive), a lactic acid bacterium phylogenetically distantly related to E. coli. […] It was next tested capacity of a phage RecT protein to overcome this SSB-mediated inhibition of annealing. Thus, Redβ, which is not broadly portable, but mediates efficient oligonucleotide annealing in E. coli, was purified. […] These preliminary results gave us an indication that while bacterial SSBs inhibit oligonucleotide annealing in vitro, RecTs overcome the inhibitory effect in an SSB-specific manner.
Fluorescent (tolC-r.null.mut-3′FAM) and quenching (tolC-f.null.mut-5′IBFQ) oligos were ordered from Integrated DNA Technologies. Unless otherwise indicated, 50 nM of each oligo was incubated in 25 mM TRIS-HCl pH 7.4 with 1.0 μM Ec_SSB or Ll_SSB at 30° C. for 30 minutes. 100 μl of each oligo mixture were then combined into a 96-well clear-bottom black assay plate (Costar), incubated a further 60 minutes at 30° C., and annealing was tracked on a Synergy H4 microplate reader (BioTek) with fluorescence excitation set to 495 nm and emission set to 520 nm. After 60 minutes, 20 μl of a solution with or without 25 μM Redβ and containing 100 mM MgCl2 was added to achieve a final reaction concentration of 2.5 μM Redβ and 10 mM MgCl2. The annealing was then tracked over 10 hours in a the Synergy H4 microplate reader with the setting indicated above.

E. coli SEER chassis = experiment: SEER library selection (frequency and enrichment by NGS); format: cell-based, Escherichia coli; details: Broad RecT Library, 10 rounds of SEER
Experimental: Therefore, it was determined whether by screening additional RecT variants, again exploiting the increased throughput of SEER compared to previous efforts, one might discover recombineering proteins further improved over Redβ and PapRecT. To this aim a second library was constructed, identifying a maximally diverse group of 109 RecT variants, 106 of which were synthesized successfully, which was called Broad RecT Library (see Methods for more details). Next, as previously described, 10 rounds of SEER selection was performed on Broad RecT Library (FIGS. 8A-8B), and upon plotting frequency against enrichment after the final selection, a clear winner emerged (FIG. 9A). […]
Native resistance alleles were identified in each of the three species for resistance to rifampicin (rif) at the rpoB locus or streptomycin (stm) at the rpsL locus. The concentration of antibiotic necessary to confer a selective benefit to the resistant allele was determined for each strain. […]
Primers were designed to amplify a 215 bp product containing the barcode region of the SSAP libraries from the pARC8 plasmid and to add on Illumina adaptors. […] Barcoded amplicons were then purified with AMPure XP magnetic beads (Beckman Coulter), pooled, and the final pooled library was quantified with the NEBNext Library Quant Kit for Illumina (NEB). […]

B1: Redβ: Redβ SSAP from Enterobacteria phage λ, SEQ ID NO: 474 (protein)
chain: MSTALATLAGKLAERVGMDSVDPQELITTLRQTAFKCDASDAQFIALLIVANQYGLNPWTKEIYAFPDKQNGIVPVVGVDGWSRIINENQQFDGMDFEQDNESCTCRIYRKDRNHPICVTEWMDECRREPFKTREGREITGPWQSHPKRMLRHKAMIQCARLAFGFAGIYDKDEAERIVENTAYTAERQPERDITPVNDETMQEINTLLIALDKTWDDDLLPLCSQIFRRDIRASSELTQAEAVKALGFLKQKATEQKVAA
modifications: Bacteriophage Lambda
Editing efficiency, averaged over targeted loci (E. coli): ~20%
Ability to overcome SSB-mediated inhibition of annealing [1]: overcame the inhibitory effect of EcSSB but not L1SSB

B2: PapRecT: SSAP from Pseudomonas aeruginosa, SEQ ID NO: 24, UniParc ID: UPI0001E9E6CB (protein, listed as Pseudomonas aeruginosa)
chain: MGTALTPLLTKFATRYEMGTTPEEVANTLKQTCFKGQVNDSQMVALLIVADQYKLNPFTKELYAFPDKNNGIVPVVGVDGWARIINENPQFDGMEFSMDQQGTECTCKIYRKDRSHAISATEYMAECKRNTQPWQSHPRRMLRHKAMIQCARLAFGFAGIYDQDEAERIVERDVTPAEQYEDVSEAICLIKDSPTMEDLQAAFSNAWKAYKTKGARDQLTAAKDQRKKELLDAPIDVEFEETGDDRAA
Annealing kinetics in vitro [1]: improved annealing kinetics in vitro

B3: CspRecT: RecT SSAP (UniParc ID: UPI0001837D7F) from a phage of Collinsella stercoris (protein)
chain: MNQIVKFTDDSGLAVQVTPDDVRRYICENATEKEVGLFLQLCQTQRLNPFVKDAYLVKYGGAPASMITSYQVFNRRACRDANYDGIKSGVVVLRDGDVVHKRGAACYKKAGEELIGGWAEVRFKDGRETAYAEVALDDYSTGKSNWAKMPGVMIEKCAKAAAWRLAFPDTFQGMYAAEEMDQAQQPEQVRAQAEQPVDLQPIRELFKPYCEHFGITPAEGMTAVCGAVGAEGMHSMTEQQARRARAWMEEEMAAPAVEAEYEVVDEGEVF
modifications: Collinsella stercoris DSM 13279
Frequency against enrichment after final selection (E. coli SEER chassis): clear winner
